This is an account of results in patent publication US20240115683A1 (ULTRAGENYX PHARMACEUTICAL, published 2024).

This test concerns the target T1, human FGF23 (fibroblast growth factor 23) (human, UniProt Q9GZV9 25-251).
T1 construct: In the total FGF23 ECLA the FGF23 was recombinant human FGF23 (standards) and endogenous FGF23 in patient serum (samples); It may include the signal peptide; also called recombinant human FGF23; rhFGF23
T1 sequence: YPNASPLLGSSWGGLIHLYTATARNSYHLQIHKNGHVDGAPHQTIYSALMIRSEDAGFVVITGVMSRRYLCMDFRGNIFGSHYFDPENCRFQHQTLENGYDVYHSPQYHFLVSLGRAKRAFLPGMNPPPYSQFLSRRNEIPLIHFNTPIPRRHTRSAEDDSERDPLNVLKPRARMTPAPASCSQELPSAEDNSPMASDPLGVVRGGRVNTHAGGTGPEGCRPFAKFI
The experiment in a line: total FGF23 ECLA; rhFGF23 standards and serum samples incubated with excess KRN23, complex detected. On the procedure: The mean values of serum total intact FGF23 levels at Baseline were recorded. The total FGF23 ECLA assay measures endogenous FGF23 in the presence of KRN23, whether complexed or unbound in serum. Standards (recombinant human FGF23 [rhFGF23]) and samples are incubated with excess amounts of KRN23 in a buffer matrix then detected by the assay. The assay measures the KRN23/FGF23 complex, which represents all endogenous FGF23 in the sample.

B1: KRN23 (antibody, human IgG1, kappa, V domains shown)
VH: QVQLVQSGAEVKKPGASVKVSCKASGYTFTNHYMHWVRQAPGQGLEWMGIINPISGSTSNAQKFQGRVTMTRDTSTSTVYMELSSLRSEDTAVYYCARDIVDAFDFWGQGTMVTVSS
VL: AIQLTQSPSSLSASVGDRVTITCRASQGISSALVWYQQKPGKAPKLLIYDASSLESGVPSRFSGSGSGTDFTLTISSLQPEDFATYYCQQFNDYFTFGPGTKVDIKR
notes: also called anti-FGF23 antibody KRN23; recombinant fully human monoclonal IgG1 antibody
In the case of B1, the binding result is “binds”.
